assay: soluble on expression in E. coli; label from the status in PepcDB or PDB records

Sequence | soluble on expression in E. coli
MSLRSIPSALQAKLDSGATTLARCWIVTRRDGVVMGFTDHDRDLTIGGVLCRAATGFTASEATSRFDLAVDGGEISGAFSDDSLSEADLAAGRYDAAGVATWLVDWSDVSLRIMIARGTIGEVRREGAAFTAELRGLADALAQDSGRLFTARCGVDLGDGKCRVDLASSAFRRSGTVTAVEGTSIVAVSGMSGLAAGWFTAGRLNWTGGANAGLAIEVKQHRVVAGVVRLSLWRAMAEPIAIGDSFVVTAGCDKSFTTCRDRFANTSNFRGFPQIPGNDFVVSYPLPGSPDNGNGSKALEGHHHHHH | soluble
MGHHHHHHSHMSDWEDDDFEPEVSTFKRAEPAPEPVKIVDAPPPPQKAAPAAPKTLKAAPTFAMESLGRELTSAEKEAIQKKNDLALARDLFGDDDSAEATDEAKTYANIMSKADFEYWGERVGGFLASRSKASCYGDMIGKLLTSVTDEMTPAEILKMVTFLQQISAAKKTAEKTKAKATTAAKPAAAANKKNAKATLKVTKGNDSMYDDYGDDQDDYDDY | soluble
MGSDKIHHHHHHMIIQSKLIRAALVCAAKNDVRYYLNGLHITPKHIEATNGSVALRMAHGIRTKKNIIVQFEGGVPAKAETTELIFSKEPIAVHRDQFQRRLSITGIKLVDGCFPDLDRIIPKKFDRCTHPVLQAGYLSYPEKMFGRERKFIPVQLRPSGDGQAVRIQFDSIINSMYGNPEFVVMPCRDHGDFNVAQEHPE | not soluble
MSLTSQKTQLEPLGIVRIEGLHYYVHDLERSRRFYAQKLDFAEVARSTPALEREGRQRSAVFEAGGVRVVCSEPVGQGGRAWRWLRKHPDGVGTVVLEVEDAERAFRLLEERGGTPITDVQEHRDDGGTLRTFSITTPLGDTTFRFVERRGFRAVYPGIEPLAAPEGGRNAFGFGHVDHLTNNFQTMKPALLWMEHVMGMEEFWEVEFHTKDAAGARRAAIEAQKGSGLRSVVMRDPRSGVKFANNEPRRPAFKSSQINLFNEDLRGDGVQHAALTVQDILSSVRGMRARGVEFMPTPAAYYEALPERIRSTGIGRIDEDPRVLQELEILVDGAGDHSYLLQIFLRESAGLYHDPDAGPFFFEIIQRKGDQGFGAGNFRALFESIEREQVREGREGHHHHHH | soluble
MTSALPRPAPSPYARRKTALVIGAGFGGLALGIRLQSLGFDTTILERLDGPGGRAYQKRTPDGYVFDMGPTVLTVPHFIEELFALERDRAGLDAPDYPPEVLSGERVKEGVSGGPHTSRYVTLVPILPFYRIVFHDGTYFDYDGDPESTRRQIAELAPGDLAGYERFHADAEAIFRRGFLELGYTHFGDVPTMLRVVPDLLKLDAVRTLFSFTSKYFQSDKLRQVFSFETLLVGGNPLSVPAIYAMIHFVEKTWGIHYAMGGTGALVRGLVQKFEELGGAIRYGAGVDEVLVDGNLPGKRTARGVRLESGEELRADLVASNGDWANTYLKRVRPSARLVNSDLRVKAASESMSLLVVYFGFRGGDDLPLKHHNILLGPRYEALLSEIFGTKRLGEDFSQYLHVPTLTDPALAPAGHHAAYTLVPVPHNGSGIDWDVEGPKLAEAALADIERRGLIPGLRERLTHFEFITPDYFAGTLDSYLGNAFGPEPRLVQSAFFRPHNRSEDLHNFYLVGAGAQPGAGTPSVMMSAKMTARLIAEDFGIHADIRRLEHHHHHH | not soluble
MTSIEWDEKTFTKFAYLSDPRTRKNLVAYVLTKANLESNKYENTIVIENLEDGSRKFIEDASMPRISPDGKKIAFMRFNEEKKTAQIWVADLKTLSAKKVLEAKNIRSIEWNQDSRRLLAVGFKRREDEDFIFEDDVPAWFDNMGFFDGEKTTFWVIDTEGEEVIEQFEKPRFSSGIWHGDSIVVSVPHRDVIPRYFKYWDIYLWKDGEEEKLFEKVSFYAIDSDGERILLYGKPEKKYVSEHDKIYIYDGEVKGILDDIDREVAQAKIRNGKVYFTLFEEGSVNLYLWDGEVREIAKGKHWIMGFDADERLIYLKETATRPAELYLWDGEERQLTDYNGLIFKKLKTFEPRHFRFKSIDLELDGWYIKPEIKEGEKAPVIVFVHGGPKGMYGYYFKYEMQLMASKGYYIVYVNPRGSNGYSEDFALRVLERTGLEDFQDILNGIEEFLRLEPQADRERIGITGISYGGYMTNWALTQSDLFKAGISENGISYWLTSYAFSDIGLWFDKEVIGDNPLENENYRKLSPLFYAKNVKAPLLLIHSLEDYRCPLDQSLMFYHVLKDLGKEVYIAIFKKGAHGHSIRGSPRHRMKRYKLFMEFFERKLKKYEEGFDVEKILKEEKK | soluble
MGSDKIHHHHHHMKRINCFIPYGKIEATRQTVAQLAESSLVSQIYLITDDPHAKAIYPCNLIRTENIWSTKTLREIAGYASAHYTLIYTKTEELQLGMYALERFVAIADDTRSGMVYSDYYEKKEGKLNPHPVIDYQKGSLRDDFNFGSLLLYRSSTLQNAIASMDTEYTFAGLYDLRLKVSQNAPLTHINEYLYTEVENDLRKSGEKMFDYVDPKNRSVQIEMEAACTDHLKMIGGYLPPHFKPVRFDEQTFQTEASVIIPVRNRVRTIEDAIRSVLRQEASFPFNLIIIDNHSTDGTSERIQAIAATDLRIIHIQPERDDLGIGGCWNIGIHHSACGKFAIQLDSDDVYSDEHTLRKIVEAFYEQRCAMVVGTYRMTDFDMRTIPPGIIDHKEWTPENGRNNALRINGLGAPRAFYTPLLRKLNLPNTSYGEDYALGLRISREYPIGRIYDVLYLCRRWEDNSDASLDVVKMNNHNIYKDKIRTWELEARLNMERQ | not soluble
MTYKELATFLKVLSDSSRLEILDLLSCGELCACDLLAHFQFSQPTLSYHMKALVKTNLVTTRKIGNKHLYQLNHNIFESVINNLSKVHTSNQRCICHNLKTGEC | not soluble
GMATSTDRTQEIQKLHELIKNIDYGMFTTVDDDGSLHSYPMSKSGDINSEATLWFFTYAGSHKVTEIEHHEQVNVSFSSPEQQRYVSISGTSQLVKDRNKMRELWKPELQTWFPKGLDEPDIALLKVNINQVNYWDSTSSFKPQTISF | soluble
MLTRSMVLVNEAWWVEPLPVHWVDKLVAELEAKLQNRGKDEYIFNGGLSVSGLQHIGRLRGEVLLGEAVRRELEKRGFRVKQLLTLYTVDPWKGKDEQRREFPDPKAAERYVGWPLDRVPDPKGCHASWVDHFWSDFGPYIGVFTDGKIEVVTTRELYKGRLKEFITTMVLPRRDEIRRVINKYRGRKPYQEGWIPLEPRCARCGRIDSTEALEILGGERVRYRCSYCGYQGESSIEDSKLNWRIEWAGVWWSLGVDFEPYGKDHATPGGSRDSAAELARLLGFEPPEGVWYEWVSLRAGGREADMSSSGFTGITPREWLDIAHPQILRFIYFLHPPTRRVVVDLSEIPSYYSQYYRAERIYFGIEEASTVEETRYLARTYELSHPSNPPAKPPSQIPYSHAAIVAQVVGPERLWTDGLERLKRAGLLGHDEYSIRWAKELLEKAYKWARRYAPKHLKFEIPDSPPEDALRRIEKPDLLEKLAEVLESVEEWSEERIKQALVEFGEGMSSSERRRFYRDFYLAIVGRPEGPRAAPLLSLMDRGFVVDRLRKAANLSRELKGR | soluble
MAHHHHHHMHSAIRFSGSSSRSTSSSMEVASAAAEPPLSVSSIPRRRSADRDDALSLLEPAVRLPTSTTSKASALSQSSLRSGSHPSAAVYGDNPGSAHTASSSYTRKGDNGDALLHQPPGNPQTRVPSSFAATVNTRASEASSHSARGRAGSSRRDNLDPAAPQSRTATQPPLTHPGSVFANIPWIPPPPIYGTPLPDSSNMNRHYAYYYDPRGATLRAPFCYPDEVPLRAQEHHSDVSGAEWPKPSDLPLPSVFPMPPHVLPQLSLPAVSAPTAEAAARGMVAAPHAWAIPPPVLYPPPPPPPWWFYGTHPLPLPASSSGSSASSTGSSRHASSSSPVSARSTTRPSRHPSANAARPHAEAAAPSRHGVAVPAGSVETPVAAASRGDAGGGHAAKKPSVASSGSRYAAGHTVGTGRAARRSMGSLSASSATTSPWSATTTTAHSDLPQRVERRVYASSGSGSSEMQRSATGQTVQVAPRRTNVAQCVPPDQLQVYGDDVVQERGYSSVMTRMKHAVSAAEAYLEKMEHLYRRLRSRYEEVVMSPGKVTRYGADITADEGVEEKRHRRTAPAATTRATRGPPEKGLLHPPERPFSRQTHLQPTAPLPHAERPVSPALSAAQPSAVEPSPPLSSSSSATSATSLRRELHLLESQWQRLEELKRHGGGGTTTAVSMPAALSPSTATSTAGEDPFTNRRFLQLIKDRKHLLTSAT | not soluble
